# Measurements as given in article doi:10.1101/2023.03.23.533910 (bioRxiv, 2023).
# B1: 3xHA-tagged SNC1 (natural protein, Arabidopsis thaliana, UniProt O23530 1-1437, looked up)
# chain: MMDTSKDDDMEIASSSGSRRYDVFPSFRGEDVRDSFLSHLLKELRGKAITFIDDEIERSRSIGPELLSAIKESRIAIVIFSKNYASSTWCLNELVEIHKCYTNLNQMVIPIFFHVDASEVKKQTGEFGKVFEETCKAKSEDEKQSWKQALAAVAVMAGYDLRKWPSEAAMIEELAEDVLRKTMTPSDDFGDLVGIENHIEAIKSVLCLESKEARIMVGIWGQSGIGKSTIGRALYSKLSIQFHHRAFITYKSTSGSDVSGMKLRWEKELLSEILGQKDIKIEHFGVVEQRLKQQKVLILLDDVDSLEFLKTLVGKAEWFGSGSRIIVITQDRQLLKAHEIDLIYEVEFPSEHLALTMLCRSAFGKDSPPDDFKELAFEVAKLAGNLPLGLSVLGSSLKGRTKEWWMEMMPRLRNGLNGDIMKTLRVSYDRLHQKDQDMFLYIACLFNGFEVSYVKDLLKDNVGFTMLTEKSLIRITPDGYIEMHNLLEKLGREIDRAKSKGNPGKRRFLTNFEDIHEVVTEKTGTETLLGIRLPFEEYFSTRPLLIDKESFKGMRNLQYLEIGYYGDLPQSLVYLPLKLRLLDWDDCPLKSLPSTFKAEYLVNLIMKYSKLEKLWEGTLPLGSLKEMNLRYSNNLKEIPDLSLAINLEELDLVGCKSLVTLPSSIQNATKLIYLDMSDCKKLESFPTDLNLESLEYLNLTGCPNLRNFPAIKMGCSDVDFPEGRNEIVVEDCFWNKNLPAGLDYLDCLTRCMPCEFRPEQLAFLNVRGYKHEKLWEGIQSLGSLEGMDLSESENLTEIPDLSKATKLESLILNNCKSLVTLPSTIGNLHRLVRLEMKECTGLEVLPTDVNLSSLETLDLSGCSSLRSFPLISTNIVWLYLENTAIEEIPSTIGNLHRLVRLEMKKCTGLEVLPTDVNLSSLETLDLSGCSSLRSFPLISESIKWLYLENTAIEEIPDLSKATNLKNLKLNNCKSLVTLPTTIGNLQKLVSFEMKECTGLEVLPIDVNLSSLMILDLSGCSSLRTFPLISTNIVWLYLENTAIEEIPSTIGNLHRLVKLEMKECTGLEVLPTDVNLSSLMILDLSGCSSLRTFPLISTRIECLYLQNTAIEEVPCCIEDFTRLTVLMMYCCQRLKTISPNIFRLTRLELADFTDCRGVIKALSDATVVATMEDHVSCVPLSENIEYIWDKLYRVAYLQEHFSFRNCFKLDRDARELILRSCFKPVALPGEEIPKYFTYRAYGDSLTVIVPQSSLSQNFLRFKACVVVEPLSKGKGFYPFLKVNVGFNGKQYQKSFSKDAELELCKTDHLFFCSFKFRSEDLPSKLNFNDVEFKFCCSNRIKECGVRLMYVSQEENNQQTTRSEKRMRMTSGTSEEDINLPYGLIVADTGLAALNMELSLGQGEPSSSTSLEGEALCVDYMITEEQDKGIPILFPVSGN
# Target: the molecule itself
# Assay: native gel or EMSA
protein,measurement,value
B1,stoichiometry N,~4
